From paper PMC10192925, “Rapid, scalable assay of amylin-β amyloid co-aggregation in brain tissue and blood” (The Journal of Biological Chemistry, 2023)

Target: T1, Aβ40 synthetic peptide (human, UniProt P05067 672-711)
T1 construct: β amyloid, the isoform ending at the 40th amino acid (Aβ40), cut product of the amyloid precursor protein; numbers count on: the Aβ peptide; Pre-incubated at 16.2 uM at 37 C for 2 h before mixing 1:1 (volume) with amylin and incubating 24 h at 37 C; also called β amyloid; human Aβ40; source: synthetic peptide; bought: Anaspec (AS-24235)
Experiment: ELISA; amylin-Aβ sandwich ELISA on solutions of peptides co-incubated at 37 C for 24 h in PBS with 0.05% sodium azide (30 uM amylin and 16.2 uM Aβ mixed 1:1); capture by the polyclonal anti-amylin P2 antibody, detection by an HRP-conjugated anti-Aβ antibody
Details: both partners purified

binding result: binds
B1: human amylin synthetic peptide (peptide, UniProt P10997 34-70, looked up)
peptide: KCNTATCATQRLANFLVHSSNNFGAILSSTNVGSNTY
notes: Amylin (islet amyloid polypeptide), human, synthetic peptide; Pre-incubated at 30 uM in PBS with 0.05% sodium azide at 37 C for 5 h before mixing with Aβ40; also called islet amyloid polypeptide; source: synthetic peptide; bought: Anaspec (AS-60254-1)
